Reference: patent publication US20240325562A1 (published 2024)

Legend:
[1] = target: T1, recombinant hPDGFRB ectodomain (human, UniProt P09619 33-532); assay: binding to immobilized ectodomain
T1 chain: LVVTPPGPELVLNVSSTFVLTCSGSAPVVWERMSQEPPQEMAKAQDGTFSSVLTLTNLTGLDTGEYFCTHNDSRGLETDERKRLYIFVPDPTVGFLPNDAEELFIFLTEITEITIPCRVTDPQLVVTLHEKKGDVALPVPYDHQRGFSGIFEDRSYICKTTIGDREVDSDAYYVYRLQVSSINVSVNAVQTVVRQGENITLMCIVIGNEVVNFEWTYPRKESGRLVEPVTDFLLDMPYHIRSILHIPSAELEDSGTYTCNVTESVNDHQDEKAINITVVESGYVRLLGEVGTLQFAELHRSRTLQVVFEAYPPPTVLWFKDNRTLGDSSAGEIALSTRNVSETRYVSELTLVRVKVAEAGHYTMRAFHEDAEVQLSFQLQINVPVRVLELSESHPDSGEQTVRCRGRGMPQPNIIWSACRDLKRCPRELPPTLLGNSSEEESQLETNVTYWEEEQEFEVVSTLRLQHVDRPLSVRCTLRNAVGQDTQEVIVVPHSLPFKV

[2] = target: T2, full-length rat PDGFRB on cells (rat, UniProt Q05030 32-1097); assay: cell binding; SCC-rPDGFRβ cells
T2 chain: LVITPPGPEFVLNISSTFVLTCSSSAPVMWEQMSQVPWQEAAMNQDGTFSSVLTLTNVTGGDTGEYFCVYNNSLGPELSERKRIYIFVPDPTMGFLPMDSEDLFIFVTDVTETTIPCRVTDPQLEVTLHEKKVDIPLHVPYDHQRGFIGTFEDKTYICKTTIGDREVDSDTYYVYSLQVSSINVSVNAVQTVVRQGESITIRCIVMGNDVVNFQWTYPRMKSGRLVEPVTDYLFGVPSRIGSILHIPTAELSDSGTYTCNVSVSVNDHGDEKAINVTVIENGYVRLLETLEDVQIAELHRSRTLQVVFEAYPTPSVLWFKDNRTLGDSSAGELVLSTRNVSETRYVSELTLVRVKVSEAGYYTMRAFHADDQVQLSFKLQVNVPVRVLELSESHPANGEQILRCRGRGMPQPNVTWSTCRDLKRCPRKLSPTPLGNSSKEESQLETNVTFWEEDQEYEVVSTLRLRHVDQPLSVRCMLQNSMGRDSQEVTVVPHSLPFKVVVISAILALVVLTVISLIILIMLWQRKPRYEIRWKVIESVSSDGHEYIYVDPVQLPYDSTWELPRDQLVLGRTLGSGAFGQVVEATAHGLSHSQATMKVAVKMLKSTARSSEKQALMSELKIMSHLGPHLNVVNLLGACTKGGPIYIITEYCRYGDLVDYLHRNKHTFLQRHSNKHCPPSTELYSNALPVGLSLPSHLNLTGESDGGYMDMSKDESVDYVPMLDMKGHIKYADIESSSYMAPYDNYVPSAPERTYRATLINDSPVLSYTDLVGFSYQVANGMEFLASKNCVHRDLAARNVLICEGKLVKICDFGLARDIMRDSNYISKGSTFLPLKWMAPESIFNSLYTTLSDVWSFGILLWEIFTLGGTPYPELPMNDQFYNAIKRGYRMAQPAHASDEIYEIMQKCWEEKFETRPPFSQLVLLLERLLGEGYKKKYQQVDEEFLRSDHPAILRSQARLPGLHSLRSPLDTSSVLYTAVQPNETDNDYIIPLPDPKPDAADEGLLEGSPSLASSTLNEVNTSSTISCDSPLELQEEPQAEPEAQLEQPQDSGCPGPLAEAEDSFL

[3] = target: T3, recombinant rPDGFRB ectodomain (rat, UniProt Q05030 32-531); assay: binding to immobilized ectodomain
T3 chain: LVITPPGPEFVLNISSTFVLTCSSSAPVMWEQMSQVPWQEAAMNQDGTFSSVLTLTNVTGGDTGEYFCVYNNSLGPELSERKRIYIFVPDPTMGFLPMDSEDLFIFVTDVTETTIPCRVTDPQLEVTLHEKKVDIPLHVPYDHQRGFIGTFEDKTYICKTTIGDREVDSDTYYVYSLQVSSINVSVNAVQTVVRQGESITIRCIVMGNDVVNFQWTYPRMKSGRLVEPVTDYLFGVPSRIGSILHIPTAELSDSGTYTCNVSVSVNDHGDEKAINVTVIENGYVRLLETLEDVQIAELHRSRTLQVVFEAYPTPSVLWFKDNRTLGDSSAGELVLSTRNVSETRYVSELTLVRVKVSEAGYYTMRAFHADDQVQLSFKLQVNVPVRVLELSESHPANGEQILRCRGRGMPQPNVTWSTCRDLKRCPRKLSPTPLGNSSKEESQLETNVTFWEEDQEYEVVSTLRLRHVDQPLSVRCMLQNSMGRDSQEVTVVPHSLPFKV

[4] = target: full-length human PDGFRB on cells (human, UniProt P09619 33-1106); assay: cell binding; SCC-hPDGFRβ cells

B1: SP20P (VHH)
VHH: EVQLVESGGGLVQAGGSLRLSCVISGRTSPTYPMGWFRQSPGNEREFVASINWSGGWRNYADSVKDRFTISRDDAKNTVYLQMNSLKPEDTAVYYCARGQYSSGTPVYAHEYAYWGQGTQVTVSS
[1]
  Kd: 3.8 nM

B2: SP02P (VHH)
VHH: EVQLVESGGGLVQAGGSLRLSCAASESISSIEQMGWFRQAPGKQRALVAINTYGGRTVYTNSVEGRFTMSRDSAKNMVYLQMTSLEPEDTAVYYCYAQTTAWRGGVWGQGTQVTVSS
[1]
  Kd: 6.2 nM

B3: SP05P (VHH)
VHH: EVQLVESGGGLVQAGGSLRLSCAASGRTSFSGYAMAWFRQAPGKERDFVASITWSYGYTYYTDSAQGRFTISRDSAKNTVYLEMNSLKPEDTAVYYCAADPKASRFRILREYAYWGQGTQVTVSS
[1]
  Kd: 9.2 nM

B4: SP14P (VHH)
VHH: EVQLVESGGGLVQAGDSLRLSCVVSGLTFSRYGMGWFRQATGKEREFVGGISVGSSGTMYPNSVKGRFTISRDNAKSTVYLQMNSLKPEDTAVYFCAAIDQGSFVQQRDYRYWGQGTQVTVSS
[1]
  Kd: 8.6 nM

B5: SP28P (VHH)
VHH: EVQLVESGGGLVQAGGSLRLSCAASGSIVSFNGINWYRQAPGKQREWVGGITQGGNTMYADSVRGRFTISRDNTKNTMYLQMNSLKPEDTAVYYCRRPPVASWGQGTQVTVSS
[2]
  Kd: 0.5 nM
[3]
  Kd: 6 nM

B6: SP13P (VHH)
VHH: EVQLVESGGGLVQPGGSLRLSCAASESIFSINYMAWYRQAPGKQRELVAFSIDGSSTNYVDSVRGRFTASRDNAENTLYLQMNSLKPEDTAVYYCYAQGNTWAAGVWGQGTQVTVSS
[4]
  Kd: 10.4 nM
[1]
  Kd: 9.3 nM

B7: SP26P (VHH)
VHH: EVQLVESGGGLVQAGGSLRLSCAASGRSFSSSVMGWFRQTPGKEREFVAATRWTAASTHYADSVKGRFTISRDHAENAVFLQMNSLKPEDTAVYYCAAGNYLDTAQYRYNYWGQGTQVTVSS
modifications: In the competition assay the reporter copy carried IRDye800 on the C-terminal cysteine, which is not in the letters.
[2]
  Kd: 0.3 nM

B8: SP27P (VHH)
VHH: EVQLVESGGGLVQIGDSLRLSCAASGGTFNRYGMGWFRQAPGKEREFVAAIRWDGVDTNYADFVKGRFTISRYNAKNTAYLQMNSLKPEDTAVYYCAADRRGLYTKHAHRYDYWGQGTQVTVSS
[3]
  Kd: 25.5 nM

B9: SP31P (VHH)
VHH: EVQLVESGGGLVQAGGSLRLSCAASRGTFGTYIMGWFRQAPGKEREFVAAISWRGANTYYGYSVKGRFTISRDNAKNTMYLQMADLKPEDTADYYCGVHLNGTPYYYASGYRYWGQGTQVTVSS
[2]
  Kd: 31.8 nM
[3]
  Kd: 276 nM

B10: SP30P (VHH)
VHH: EVQLVESGGGLVQAGGSLRLSCAASRGTFGTDIMGWFRQAPGKEREFVAAISWRGANTYYGYSVKGRFTISRDNAKNTMYLQMADLKPEDTADYYCGVHLNGTPYYYASGYRYWGQGTQVTVSS
[3]
  Kd: 12.2 nM

B11: SP36P (VHH)
VHH: EVQLVESGGGLVQAGGSLRLSCTPSITTAGTTIMAWFRQAPGNEREFVAAIWGSKTAYGDSMKGRLTISRDNVRDNGQKTVFLQMNNLQLQDTATYYCAASSGGYVHSSTSYEIWGRGTQVTVSS
[2]
  Kd: 76.6 nM
[3]
  Kd: 31 nM

B12: SP01P (VHH)
VHH: EVQLVESGGGLAQAGGSLRLSCVASGNIDSANGMAWYRQAPGKQRELVAHITSGTSYYVASVEGRFTISRANAKDTWYLQMNSLKPEDTGVYYCFPIGLSAHWSQGTQVTVSS
[4]
  Kd: 7.8 nM
[1]
  Kd: 20.4 nM
